Earlier results as cited in paper PMC4344624.
pKd: −log10 of the molar value.

Biological target: VPg (Turnip mosaic virus) (UniProt P89509)
Sequence of UniProt P89509 (P89509 1925-2116): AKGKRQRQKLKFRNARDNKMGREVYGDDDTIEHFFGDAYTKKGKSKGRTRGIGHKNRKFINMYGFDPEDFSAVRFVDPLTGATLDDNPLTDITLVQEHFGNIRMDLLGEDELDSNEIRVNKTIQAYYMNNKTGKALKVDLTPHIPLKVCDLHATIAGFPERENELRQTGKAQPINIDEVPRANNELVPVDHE

Pokeweed antiviral protein (from UniProt P10297)
pKd: 7.54
